The values that follow come from PMC9729196, “An in silico method to assess antibody fragment polyreactivity” (Nature Communications, 2022).

Substitutions are numbered along the chain they refer to. Names and notes keep the numbering of the source. Like-named read-outs stand apart in the source and are kept apart here.

The target of one test is insulin (Homo sapiens (assumed; ), UniProt P01308).
Test [1] addresses T1, wild-type human FLAG-AT1R (angiotensin II type 1 receptor) (human, UniProt P30556 1-359).
T1 chain: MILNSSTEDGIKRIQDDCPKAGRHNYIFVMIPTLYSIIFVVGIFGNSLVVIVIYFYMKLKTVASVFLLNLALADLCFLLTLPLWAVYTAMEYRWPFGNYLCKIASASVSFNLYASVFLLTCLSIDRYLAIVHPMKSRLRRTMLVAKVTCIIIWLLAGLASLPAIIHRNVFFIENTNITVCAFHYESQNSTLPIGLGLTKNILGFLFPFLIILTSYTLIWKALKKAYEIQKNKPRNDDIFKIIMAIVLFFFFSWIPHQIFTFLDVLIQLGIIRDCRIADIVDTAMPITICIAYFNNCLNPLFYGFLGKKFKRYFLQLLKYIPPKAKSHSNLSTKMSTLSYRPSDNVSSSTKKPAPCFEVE

Test [2] deals with T1, wild-type human FLAG-AT1R (angiotensin …). As to the kind of experiment: FACS.
Test [3] addresses T2, wild-type human FLAG-AT1R (angiotensin II type 1 receptor) (Homo sapiens, UniProt P30556).
T2 construct: angiotensin II type 1 receptor (AT1R), human, wild type; Cells were gated with the M1 anti-FLAG antibody; also called angiotensin II type I receptor; source: Expi293F TetR cells, stably transfected (pCDNA Zeo-TetO), induced with doxycycline; on cells, or in cell membranes prepared from them
As to the kind of experiment: radioligand binding; competition of nanobody with 2 nM [3H]-olmesartan on membranes of FLAG-AT1R cells; 50 mM Tris pH 7.4, 12.5 mM MgCl2, 150 mM NaCl, 0.2% BSA, 90 min, room temperature; Ki from a one-site competition model. To be noted: one partner purified.

Test [4] deals with T2, wild-type human FLAG-AT1R (angiotensin …). As to the kind of experiment: flow cytometry on cells; Expi293F cells expressing FLAG-AT1R stained with 20 nM nanobody (C-terminal V5), 1 h, 4 °C, 20 mM Hepes pH 7.4, 150 mM NaCl, 0.1% BSA; detected with Alexa 647 anti-V5; gated for M1 anti-FLAG-positive singlets. To be noted: one partner purified.
In test [5] the target is T1, wild-type human FLAG-AT1R (angiotensin …). As to the kind of experiment: [3H]-olmesartan competition, membranes.

Chain of insulin (F8WCM5 25-54, chain 1 of 2): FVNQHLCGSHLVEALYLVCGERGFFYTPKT
Chain of insulin (P01308 90-110, chain 2 of 2): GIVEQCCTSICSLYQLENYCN

B1: F10' (VHH)
VHH: QVQLVESGGGLVQAGGSLRLSCAASGSTFWWYAMGWYRQAPGKERELVATISRGGSTNYADSVKGRFTISRDNAKNTVYLQMNSLKPEDTAVYYCARKTRDIRLDYWGQGTQVTVSS
B1: the binding result in the test with insulin was “binds”.

B2: AT118i4h32 G26D^27 T57I^65 (VHH)
VHH: EVQLVESGGGLVQPGGSLRLSCAASDYIYRRYRMGWYRQAPGKGREFVAAISGGSSINYADSVKGRFTISRDNSKNTVYLQMNSLRAEDTAVYYCAAYRIVSDPRVYWGQGTQVTVSS
notes: as the chain of m1 with the two stated substitutions; its own crystal structure is one of PDB 7T83 and 7T84 (crystallised construct: N-terminal Met-Ala, C-terminal His tag); the superscripts are IMGT numbers; also called G26D^27 T57I^65 variant; source: E. coli BL21(DE3), pET26b, purified (Protein A, Ni-NTA); not shown: V5, C-terminal, kept; His6, C-terminal, kept
B2: the inhibition constant (Ki) in test [1] is 79.4 nM. Moreover, binding in test [2] was put at a Kd of 54 nM. For the same molecule, the binding result in test [3] is given as “binds”.

B3: AT118i4h32 T57D^65 (VHH)
VHH: B2 VHH with D26G, I57D
notes: as the chain of m1 with the stated substitution; the superscript is the IMGT number; also called T57D^65 substitution; source: E. coli BL21(DE3), pET26b, purified (Protein A, Ni-NTA); not shown: V5, C-terminal, kept; His6, C-terminal, kept
B3: the “fold decrease of binding against the wild type” value in test [4] came out at 2 fold.

B4: AT118i4h32 G26D^27 (VHH)
VHH: B2 VHH with I57T
In test [1], B4 came in with a Ki of 70.8 nM.

B5: AT118i4h32 T57I^65 (VHH)
VHH: B2 VHH with D26G
B5 displayed a Ki in test [1] of 64.6 nM.

B6: AT118i4h32 (VHH)
VHH: B2 VHH with D26G, I57T
notes: coordinates of the AT118i4h32 structures are deposited as PDB 7T83 and 7T84 (the crystallised construct has an N-terminal Met-Ala and a C-terminal His tag); humanised form of AT118 (eleven substitutions towards human VH3-23); Nanobody antagonist of AT1R from a synthetic library, humanised; also called WT AT118i4h32; wild-type nanobody; source: E. coli BL21(DE3), pET26b, purified (Protein A, …)
Turning to B6, the Ki in test [5] is 72.4 nM. The binding result in test [4] is given as “binds”. Further, the Kd in test [2] was found to be 58.3 nM.
